The target in experiment [1] is full-length human CEA (human) (UniProt P06731). Nature of the experiment: binding to CHO cells co-expressing full-length CEA and the CEA splice variant (method of the KD not described).
Experiment [2] has the same target. In words: binding to CHO cells expressing full-length CEA (method of the KD not described).

As to MEDI-565 (bispecific antibody), the Kd in experiment [1] came to 5.6 nM; in experiment [2] it was 5 nM.

For the origin of these results see patent US20130035249A1.
